These results are taken from paper PMC5715260, “Increasing the length and hydrophobicity of the C‐terminal sequence of transthyretin strengthens its binding affinity to retinol binding protein” (FEBS Open Bio, 2017).

In this assay the target is Human retinol binding protein (RBP) (human, UniProt P02753 19-201). The assay can be described thus: native gel or EMSA; purified TTR (0.5 uM) incubated with human RBP (0-4 uM) at 4 °C for 2 h; free and RBP-bound TTR separated by native PAGE (10%), western blot with anti-TTR and ECL; Kd by Scatchard analysis assuming a 1:2 TTR:RBP complex; low TTR/RBP molar ratio. As to conditions: both partners purified. Background: Mobility shift assays separate free from complexed probe on a gel.

B1: Crocodylus porosus transthyretin (TTR), recombinant (natural protein)
chain: not shown
notes: Transthyretin, Crocodylus porosus, recombinant wild type; The discussion says all TTRs were secreted as a tetramer; also called C. porosus TTR; crocTTR; source: Pichia pastoris, secreted into the culture medium, purified (preparative native PAGE)
Consider B1, for which the Kd (in general, a measure of binding affinity in units of concentration) was 1420 nM.
